Columns and labels:
[1] = target: VP16-MR LBD (K782E) (human) (UniProt P08235); assay: cell-based or functional assay
[2] = target: VP16-MR LBD (residues 727-984) (human) (UniProt P08235); assay: cell-based or functional assay
VP16-MR LBD (residues 727-984) (human), sequence (P08235 727-984 limits assumed): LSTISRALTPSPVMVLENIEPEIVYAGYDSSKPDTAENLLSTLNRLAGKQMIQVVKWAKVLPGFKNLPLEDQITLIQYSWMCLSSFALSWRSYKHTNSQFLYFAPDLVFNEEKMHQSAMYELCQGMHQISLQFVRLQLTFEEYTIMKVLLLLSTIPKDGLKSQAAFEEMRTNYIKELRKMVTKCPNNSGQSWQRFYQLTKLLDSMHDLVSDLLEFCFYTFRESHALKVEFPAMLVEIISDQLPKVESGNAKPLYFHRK

VP16-MR LBD (K782E) (human), sequence (P08235 727-984 K782E): as the sequence (P08235 727-984 limits assumed) above, with K56E counted along it

## Gal4-SRC1-4 (GAL4-DBD fused with SRC1 residues 1240-1441) (from UniProt P04386 1-147; Q15788 1240-1441)
[1]
  activation of the reporter driven by the GAL4 DNA-binding sites (mammalian two hybrid, luciferase): 1.7 fold
[2]
  activation of the reporter driven by the GAL4 DNA-binding sites (mammalian two hybrid, luciferase): 7 fold
